Measured values as given in patent US20240132578A1.

Key:
Experiment in all cases: cell-based or functional assay
[1] = target: HIV-1 Env of isolate CMU02 (CRF01_AE) (HIV-1)
[2] = target: HIV-1 Env of isolate IAVI-C22 (Clade C) (HIV-1)
[3] = target: HIV-1 Env of pseudovirus MGRM-F1-013 (clade F) (HIV-1)
[4] = target: HIV-1 93IN905 envelope protein (Env) on pseudotyped virus (HIV-1 strain 93IN905)
[5] = target: HIV-1 IAVI_C22 envelope protein (Env) on pseudotyped virus (HIV-1 strain IAVI C22)
[6] = target: aMLV envelope on pseudotyped virus (negative control) (aMLV)
[7] = target: HIV-1 NL43 envelope protein (Env) on pseudotyped virus (HIV-1 strain NL43)
[8] = target: HIV-1 92RW020 envelope glycoprotein (Env), on pseudovirus (HIV-1 isolate 92RW020 (clade A))
[9] = target: HIV-1 envelope glycoprotein (Env) of isolate 92WR026, subtype A (HIV-1)
[10] = target: HIV-1 JR-CSF Env D325A (HIV-1 isolate JR-CSF) (UniProt P20871)
[11] = target: HIV-1 Env of isolate MGRM-F1-014 (pseudovirus) (HIV-1)
[12] = target: HIV-1 envelope glycoprotein (Env) of isolate JR-FL, on pseudovirus (HIV-1)
[13] = target: HIV-1 93UG077 Env (HIV-1)
HIV-1 APV13 Env (HIV-1) = target: HIV-1 APV13 Env (HIV-1)
[14] = target: aMLV envelope protein (negative control pseudovirus)
[15] = target: HIV-1 JR-CSF Env V292A (HIV-1 (isolate JR-CSF, clade B)) (UniProt P20871)
[16] = target: HIV-1 JR-CSF Env P299A (HIV-1 (isolate JR-CSF, clade B)) (UniProt P20871)
[17] = target: HIV-1 JR-CSF Env T202A (HIV-1 (isolate JR-CSF)) (UniProt P20871)
[18] = target: HIV-1 JR-CSF Env T320A (HIV-1 (isolate JR-CSF, clade B)) (UniProt P20871)

Sequence of 1443_C16 (PG16) (TCN-116) (antibody) (VH): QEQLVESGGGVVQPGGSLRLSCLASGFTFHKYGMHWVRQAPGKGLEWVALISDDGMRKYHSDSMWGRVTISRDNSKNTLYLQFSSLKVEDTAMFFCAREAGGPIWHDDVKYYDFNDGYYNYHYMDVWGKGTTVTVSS
Sequence of 1443_C16 (PG16) (TCN-116) (antibody) (VL): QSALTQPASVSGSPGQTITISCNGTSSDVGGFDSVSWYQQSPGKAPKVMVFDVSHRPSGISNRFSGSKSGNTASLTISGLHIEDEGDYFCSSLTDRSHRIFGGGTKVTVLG

2F5 (antibody)
IC90 (neutralization of pseudovirus) [1]: 12.2 mg/L | IC90 (neutralization of pseudovirus) [2]: > 50 mg/L | IC50 [3]: 4.57 mg/L

2G12 (antibody)
IC90 (neutralization of pseudovirus) [1]: > 50 mg/L | IC90 (neutralization of pseudovirus) [2]: > 50 mg/L | IC50 [3]: > 50 mg/L

4E10 (antibody)
IC90 (neutralization of pseudovirus) [1]: 13.4 mg/L | IC90 (neutralization of pseudovirus) [2]: 16.4 mg/L

1443_C16 (PG16) (TCN-116) (antibody)
IC50, Neutralizing Antibody Assay, Virus/Ab Incubation 1 hour [4]: 0.33 mg/L | IC50, Neutralizing Antibody Assay, Virus/Ab Incubation 18 hour [4]: 0.255 mg/L | IC50, Neutralizing Antibody Assay, Virus/Ab Incubation 1 hour [5]: 0.114 mg/L | IC50, Neutralizing Antibody Assay, Virus/Ab Incubation 18 hour [5]: 0.106 mg/L | IC90 (neutralization of pseudovirus) [1]: > 50 mg/L | IC50, Neutralizing Antibody Assay, Virus/Ab Incubation 1 hour [6]: > 50 mg/L | IC50, Neutralizing Antibody Assay, Virus/Ab Incubation 18 hour [6]: > 50 mg/L | IC90 (neutralization of pseudovirus) [2]: > 50 mg/L | IC50, Neutralizing Antibody Assay, Virus/Ab Incubation 1 hour [7]: < 0.0025 mg/L | IC50, Neutralizing Antibody Assay, Virus/Ab Incubation 18 hour [7]: 4.99 mg/L | IC50 (ug/ml), pseudovirus neutralization, TZM-bl assay [8]: 0.09 µg/mL

1495_C14 (PGC14) (antibody)
IC50, Neutralizing Antibody Assay, Virus/Ab Incubation 1 hour [4]: > 50 mg/L | IC50, Neutralizing Antibody Assay, Virus/Ab Incubation 18 hour [4]: 0.146 mg/L | IC50, Neutralizing Antibody Assay, Virus/Ab Incubation 1 hour [5]: > 50 mg/L | IC50, Neutralizing Antibody Assay, Virus/Ab Incubation 18 hour [5]: 13.4 mg/L | IC50, Neutralizing Antibody Assay, Virus/Ab Incubation 1 hour [6]: > 50 mg/L | IC50, Neutralizing Antibody Assay, Virus/Ab Incubation 18 hour [6]: > 50 mg/L | IC50, Neutralizing Antibody Assay, Virus/Ab Incubation 1 hour [7]: 0.35 mg/L | IC50, Neutralizing Antibody Assay, Virus/Ab Incubation 18 hour [7]: 0.15 mg/L | IC50 [3]: 6 mg/L

4858_P08 (PGT-123) (antibody)
IC50, pseudovirus neutralization [9]: 0.012 mg/L | Fold IC50 increase relative to wild-type [10]: 64 fold | IC50 (µg/mL), pseudovirus neutralization [11]: 0.111 µg/mL | IC50, pseudovirus neutralization [12]: 0.014 mg/L | IC50, pseudovirus neutralization [13]: 0.0303 mg/L | IC50, pseudovirus neutralization (HIV-1 APV13 Env (HIV-1)): 0.222 mg/L | IC50, pseudovirus neutralization [14]: > 10 mg/L | IC80 (pseudovirus neutralization) [14]: > 10 mg/L | IC90 (pseudovirus neutralization) [14]: > 10 mg/L | IC95 (pseudovirus neutralization) [14]: > 10 mg/L

4877_D15 (PGT-122) (antibody)
IC50, pseudovirus neutralization [9]: 0.036 mg/L | IC50 (µg/mL), pseudovirus neutralization [11]: 0.195 µg/mL | IC50, pseudovirus neutralization [12]: 0.026 mg/L | IC50, pseudovirus neutralization [13]: 0.191 mg/L | IC50, pseudovirus neutralization (HIV-1 APV13 Env (HIV-1)): 0.992 mg/L

5123_A06 (PGT-125) (antibody)
Fold IC50 increase relative to wild-type [15]: 3.3 fold | IC50, pseudovirus neutralization [9]: 0.007 mg/L | Fold IC50 increase relative to wild-type [10]: 0.4 fold | Fold IC50 increase relative to wild-type [16]: 0.2 fold | Fold IC50 increase relative to wild-type [17]: 0.8 fold | IC50 (µg/mL), pseudovirus neutralization [11]: > 50 µg/mL | IC50, pseudovirus neutralization [12]: 0.009 mg/L | Fold IC50 increase relative to wild-type [18]: 0.8 fold | IC50, pseudovirus neutralization [13]: 0.0262 mg/L | IC50, pseudovirus neutralization (HIV-1 APV13 Env (HIV-1)): 0.0128 mg/L
